Experimental data published in patent US20220298231A1 (AC IMMUNE, published 2022).
Where no end group is shown, it is not given here. The star is where a group is joined. Biotin = O=C1N[C@H]2[C@H](CS[C@H]2CCCCC(=O)*)N1; Ahx = NCCCCCC(=O)O

T1: 91-105aa
T1 construct: also called alpha-synuclein peptide 91-105
T1 peptide: {Biotin-Ahx}-ATGFVKKDQLGKNEE

T2: 109-123aa
T2 peptide: {Biotin-Ahx}-QEGILEDMPVDPDNE

T3: 100-114aa
T3 peptide: {Biotin-Ahx}-LGKNEEGAPQEGILE

T4: 82-96aa
T4 construct: also called alpha-synuclein peptide 82-96
T4 peptide: {Biotin-Ahx}-VEGAGSIAAATGFVK


Experiments:
alpha-synuclein fibrils [1] = target: T5, alpha-synuclein fibrils (Homo sapiens (Human), UniProt P37840 1-140); assay: cell-based or functional assay
91-105aa = target: T1, 91-105aa; assay: 15-mer peptide ELISA;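 also: indirect ELISA of hybridoma supernatant antibodies (1/100, 1 h) binding immobilized 15-mer peptides spanning human alpha-synuclein 1-140 on streptavidin plates, read as optical density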
Method: (§1) Epitope mapping for the antibodies derived from stable hybridoma clones was determined using an indirect ELISA on a library of 15-mer peptides covering the entire sequence of human alpha-synuclein from 1 to 140aa. […] Results are expressed as optical density (O.D.). Each bar represents data for an individual antibody.
(§2) Serum-free supernatants were harvested from stable hybridomas. The supernatants containing antibodies of interest were then screened by an indirect ELISA assay to determine epitopes. Epitopes were first determined using a library of 15-mer peptides covering the entire sequence of human alpha-synuclein protein, spanning amino acids (aa) 1-140 with 9aa offset and 6aa overlap. […] Briefly, streptavidin-coated ELISA plates were blocked overnight at 4° C. […] Plates were washed with PBS/0.05% Tween® 20 and then incubated with the hybridoma supernatants at 1/100 dilution for 1 hour at 25° C. […] After final wash, plates were incubated 2 hours at 25° C. with alkaline phosphatase substrate (p-nitrophenyl phosphate disodium hexahydrate; pNPP, S0942, Sigma) and read the absorbance optical density (O.D.) signal at 405 nm using an ELISA plate reader (Tecan, Switzerland).

109-123aa = target: T2, 109-123aa; assay: 15-mer peptide ELISA;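 also: indirect ELISA of hybridoma supernatant antibodies (1/100, 1 h) binding immobilized 15-mer peptides spanning human alpha-synuclein 1-140 on streptavidin plates, read as optical density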
Method: as §1, §2

100-114aa = target: T3, 100-114aa; assay: 15-mer peptide ELISA;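 also: indirect ELISA of hybridoma supernatant antibodies (1/100, 1 h) binding immobilized 15-mer peptides spanning human alpha-synuclein 1-140 on streptavidin plates, read as optical density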
Method: as §1, §2

82-96aa = target: T4, 82-96aa; assay: 15-mer peptide ELISA;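 also: indirect ELISA of hybridoma supernatant antibodies (1/100, 1 h) binding immobilized 15-mer peptides spanning human alpha-synuclein 1-140 on streptavidin plates, read as optical density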
Method: as §1, §2

[2] = target: T6, human full-length alpha-synuclein (human, UniProt P37840 1-140); assay: SPR, 100 nM monomer, relative to chimeric;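 also: SPR with antibody variants captured via anti-human Fc IgG on an amine-coupled chip, isotype IgG1 reference channel subtracted, dissociation rate fitted by 1:1 or heterogeneous ligand model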
Method: (§3) Flow channels (Fc) 1-8 were activated with a fresh solution of EDC/NHS (Amine Coupling Kit, 1:1 ratio of both reagents, GE Healthcare Life Sciences, BR100050). […] The chip was deactivated by 1 M ethanolamine-HCl (GE Healthcare Life Sciences, BR100050) at a flow rate of 10 μL/min for 420 s.
(§4) A human IgG1 isotype control diluted in running buffer 1×HBS-EP+ (GE Healthcare Life Sciences, BR100669) was captured onto Fc1 via anti-human Fc IgG at a flow rate of 10 μL/min. […] 10 mM glycine pH 1.5 as regeneration buffer was injected following every dissociation phase.
(§5) The data for reference channel Fc1 and buffer channel were subtracted to generate the sensorgrams. The experimental data was fitted by 1:1 binding model or heterogeneous ligand model.

alpha-synuclein fibrils [3] = target: T5, alpha-synuclein fibrils; assay: SPR, mAb captured, 1:1 model
Method: (§6) Non-covalent immobilization of alpha-synuclein antibodies was performed using a target immobilization method of 200 response units (RU). […] Binding affinity of alpha-synuclein antibodies to monomeric or fibrillar alpha-synuclein species was performed using a single-cycle kinetics method. […] A dissociation phase of 900 sec followed the final 50 nM injection. Regeneration of the sensor to the goat anti-human antibody layer was achieved using 3 regenerations of 10 mM Glycine pH 1.7. […] Regeneration of the sensor to the goat anti-human antibody layer was achieved using 3 regenerations of 10 mM Glycine pH 1.7. Results obtained from single-cycle kinetics were evaluated by Biacore K8 evaluation software with 1:1 binding homogenous Langmuir model (with a global Rmax) with Cycle 5 as a blank subtraction. The following kinetic parameters were obtained: on-rate (ka), off-rate (kd), affinity constant (KD, ratio of kd by ka), maximum response (Rmax), and goodness of fit (Chi2).
(§7) Kinetic constants were determined from 1:1 homogenous binding models for binding versus the aggregated form, while a steady state fit was used to determine KD values versus the monomeric form of alpha-synuclein.

[4] = target: T6, human full-length alpha-synuclein; assay: SPR, mAb captured, steady-state fit
Method: as §6, §7

alpha-synuclein fibrils [5] = target: T5, alpha-synuclein fibrils; assay: SPR, 450 nM aggregates, relative to chimeric;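 also: surface plasmon resonance with anti-human Fc capture, human IgG1 isotype control channel and buffer run subtracted, dissociation rates fitted by 1:1 or heterogeneous ligand binding model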
Method: as §3, §4, §5

Binder	Relative koff [2]	kon (alpha-synuclein fibrils [3]) [M⁻¹ s⁻¹]	Kd [4] [nM]	Relative koff (alpha-synuclein fibrils [5])	other results
ACI-7067-1101C8-Ab2 (antibody, V domains shown) VH: EVQLVESGGGLVQPKGSLKLSCAASGFSFNIYAMNWVRQAPGKGLEWVARIRSKSNNYATYYADSVKDRFTISRADSESMLYLQMNNLKTEDTAMYYCVRVGLRFYAMDYWGQGTSVTVSS VL: DVLMTQTPLSLPVSLGDQASISCRSSQSIVHSNGNTYLEWYLQKPGQSPKLLIYKVSNRFSGVPDRFSGSGSGTDFTLKISRVEAEDLGVYYCFQGSQGPLTFGAGTKLELK					IC50, de novo alpha-synuclein aggregates formed in seeded mouse primary cortical neurons (alpha-synuclein fibrils [1]): 114 nM; IC50, de novo alpha-synuclein aggregates formed in the seeded in vitro cellular model (alpha-synuclein fibrils [1]): 3.3 nM
ACI-7067-1108B11-Ab2 (antibody, V domains shown) VH: EVQLVESGGGLVQPKGSLKLSCAASGFTFNTYAMHWVRQAPGKGLEWVARIRSKGSNYATNYADSVKDRFTISRDDSQSMLYLQMNNLKTEDTAMYYCVRGHGSSYFSYWGQGTLVTVSA VL: QIVLTQSPAIMSASPGERITMTCSANSSVTYMHWYQQKSGTSPKRWIYDTSNLASGVPARFSGSGSGTSYSLTISSMEAEDAATYYCQQWKSHPPTFGAGTKLELK					IC50, de novo alpha-synuclein aggregates formed in seeded mouse primary cortical neurons (alpha-synuclein fibrils [1]): 143 nM; IC50, de novo alpha-synuclein aggregates formed in the seeded in vitro cellular model (alpha-synuclein fibrils [1]): 4.5 nM
ACI-7067-1113D10-Ab1 (antibody, V domains shown) VH: EVQLVESGGGLVQPKGSLKLSCAASGFTFNTYALHWVRQAPGKGLEWVARIRSKSSNYATYYADSVKDRFTISRDDSQSMLYLQMNNLKTEDTGMYYCVRGGVSPFDYWGQGTTLTVSS VL: QIVLTQSPAIMSASPGEKVTMTCSASSSVSYMHWYQQKSGTSPKRWIYDTSKLASGVPARFSGSGSGTSYSLTISSMEAEDSATYYCQQWSNNPPTFGGGTKLEIK					IC50, de novo alpha-synuclein aggregates formed in seeded mouse primary cortical neurons (alpha-synuclein fibrils [1]): 702 nM; IC50, de novo alpha-synuclein aggregates formed in the seeded in vitro cellular model (alpha-synuclein fibrils [1]): 39.6 nM
ACI-8033-1F8-Ab1 (antibody, V domains shown, mouse hybridoma mAb; also called 917.1F8D8E4) VH: DVQLQESGPGLVKPSQSLSLTCSVTGYSITSGFYWNWIRQFPGNKLEWMGYISYDGSNNYNPSLKNRISIIRDTSKNQFFLKLKSVTSEDTATYYCVRGDVDWGQGTTLTVSS VL: not shown					binding result (91-105aa): no binding (tested: supernatant 1/100); binding result (109-123aa): no binding (tested: supernatant 1/100); binding result (100-114aa): no binding (tested: supernatant 1/100)
ACI-8033-25A3-Ab1 (antibody, V domains shown, mouse hybridoma mAb; also called 917.25A3E9F6) VH: EVQLVESGGGLVQPKGSLKLSCAASGFSFNTYAMNWVRQAPGKGLEWVARIRSKSNNFATYYADSVKDRFTISRDESESMLYLQMNNLKTEDTAMYYCVRSFDYWGQGTTLTVSS VL: DIKMTQSPSSMYASLGERVTITCKASQDINSYLSWFQQKPGKSPKTLIYRAKRLVDGVPSRFSGSGSGQDYSLTISSLEYEDMGIYYCLQYDEFPFTFGSGTKLEIK					binding result (91-105aa): no binding (tested: supernatant 1/100); binding result (82-96aa): no binding (tested: supernatant 1/100); binding result (109-123aa): no binding (tested: supernatant 1/100); binding result (100-114aa): no binding (tested: supernatant 1/100)
hACI-7067-1101C8-Ab2_H5L1 (antibody, V domains shown, VH on human IgG1 constant, VL on human kappa constant) VH: EVQLVESGGGLVQPGGSLKLSCAASGFSFNIYAMNWVRQAPGKGLEWVGRIRSKSNAYATYYAASVKGRFTISRDDSKNTLYLQMNNLKTEDTAVYYCTRVGLRFYAMDYWGQGTLVTVSS VL: DVVMTQSPLSLPVTLGQPASISCRSSQSIVHSNANTYLEWYQQRPGQSPRLLIYKVSNRFSGVPDRFSGSGSGTDFTLKISRVEAEDLGVYYCFQGSQGPLTFGQGTKLEIK	1.1	22000	20.1	1.5	Kd (alpha-synuclein fibrils [3]): 1 nM; koff (alpha-synuclein fibrils [3]): 2.18e-05 s⁻¹
hACI-7067-1101C8-Ab2_H6L1 (antibody, V domains shown, VH on human IgG1 constant, VL on human kappa constant) VH: EVQLVESGGGLVQPGGSLKLSCAASGFSFNIYAMNWVRQAPGKGLEWVARIRSKSNAYATYYAASVKGRFTISRDDSKNTLYLQMNNLKTEDTAVYYCVRVGLRFYASDYWGQGTLVTVSS VL: DVVMTQSPLSLPVTLGQPASISCRSSQSIVHSNANTYLEWYQQRPGQSPRLLIYKVSNRFSGVPDRFSGSGSGTDFTLKISRVEAEDLGVYYCFQGSQGPLTFGQGTKLEIK	0.3			1	
hACI-7067-1101C8-Ab2_H8L1 (antibody, V domains shown, VH on human IgG1 constant, VL on human kappa constant) VH: EVQLVESGGGLVQPGGSLKLSCAASGFSFNIYAMNWVRQAPGKGLEWVGRIRSKSNAYATYYAASVKGRFTISRDDSKNTLYLQMNNLKTEDTAVYYCTRVGLRFYALDYWGQGTLVTVSS VL: DVVMTQSPLSLPVTLGQPASISCRSSQSIVHSNANTYLEWYQQRPGQSPRLLIYKVSNRFSGVPDRFSGSGSGTDFTLKISRVEAEDLGVYYCFQGSQGPLTFGQGTKLEIK	0.2	17600	40	1.1	Kd (alpha-synuclein fibrils [3]): 2 nM; koff (alpha-synuclein fibrils [3]): 3.6e-05 s⁻¹
hACI-7067-1101C8-Ab2_H9L1 (antibody, V domains shown, VH on human IgG1 constant, VL on human kappa constant) VH: EVQLVESGGGLVQPGGSLKLSCAASGFTFNIYAMNWVRQAPGKGLEWVGRIRSKSNAYATYYAASVKGRFTISRDDSKNTLYLQMNNLKTEDTAVYYCTRVGLRFYAMDYWGQGTLVTVSS VL: DVVMTQSPLSLPVTLGQPASISCRSSQSIVHSNANTYLEWYQQRPGQSPRLLIYKVSNRFSGVPDRFSGSGSGTDFTLKISRVEAEDLGVYYCFQGSQGPLTFGQGTKLEIK	1.3	23900	18.2	5.5	Kd (alpha-synuclein fibrils [3]): 0.9 nM; koff (alpha-synuclein fibrils [3]): 2.25e-05 s⁻¹
hACI-7067-1101C8-Ab2_H9L2 (antibody, V domains shown, VH on human IgG1 constant, VL on human kappa constant) VH: EVQLVESGGGLVQPGGSLKLSCAASGFTFNIYAMNWVRQAPGKGLEWVGRIRSKSNAYATYYAASVKGRFTISRDDSKNTLYLQMNNLKTEDTAVYYCTRVGLRFYAMDYWGQGTLVTVSS VL: DVVMTQSPLSLPVTLGQPASISCRSSQSLVHSNANTYLEWYQQRPGQSPRLLIYKVSNRFSGVPDRFSGSGSGTDFTLKISRVEAEDLGVYYCFQGSQGPLTFGQGTKLEIK	0.8		66.9	2.3	
hACI-7067-1101C8-Ab2_H10L1 (antibody, V domains shown, VH on human IgG1 constant, VL on human kappa constant) VH: EVQLVESGGGLVQPGGSLKLSCAASGFTFNIYAMNWVRQAPGKGLEWVGRIRSKSNAYATYYAASVKGRFTISRDDSKNTLYLQMNNLKTEDTAVYYCTRVGLRFYALDYWGQGTLVTVSS VL: DVVMTQSPLSLPVTLGQPASISCRSSQSIVHSNANTYLEWYQQRPGQSPRLLIYKVSNRFSGVPDRFSGSGSGTDFTLKISRVEAEDLGVYYCFQGSQGPLTFGQGTKLEIK	0.2	11500	48.2	1.7	
hACI-7067-1101C8-Ab2_H10L2 (antibody, V domains shown, VH on human IgG1 constant, VL on human kappa constant) VH: EVQLVESGGGLVQPGGSLKLSCAASGFTFNIYAMNWVRQAPGKGLEWVGRIRSKSNAYATYYAASVKGRFTISRDDSKNTLYLQMNNLKTEDTAVYYCTRVGLRFYALDYWGQGTLVTVSS VL: DVVMTQSPLSLPVTLGQPASISCRSSQSLVHSNANTYLEWYQQRPGQSPRLLIYKVSNRFSGVPDRFSGSGSGTDFTLKISRVEAEDLGVYYCFQGSQGPLTFGQGTKLEIK	0.2		35.1	0.8	
hACI-7067-1101C8-Ab2_H11L1 (antibody, V domains shown, VH on human IgG1 constant, VL on human kappa constant) VH: EVQLVESGGGLVQPGGSLKLSCAASGFTFNIYAMNWVRQAPGKGLEWVGRIRSKSNAYATYYAASVKGRFTISRDDSKNTAYLQMNNLKTEDTAVYYCTRVGLRFYAMDYWGQGTLVTVSS VL: DVVMTQSPLSLPVTLGQPASISCRSSQSIVHSNANTYLEWYQQRPGQSPRLLIYKVSNRFSGVPDRFSGSGSGTDFTLKISRVEAEDLGVYYCFQGSQGPLTFGQGTKLEIK	0.8		48	62	
hACI-7067-1101C8-Ab2_H11L2 (antibody, V domains shown, VH on human IgG1 constant, VL on human kappa constant) VH: EVQLVESGGGLVQPGGSLKLSCAASGFTFNIYAMNWVRQAPGKGLEWVGRIRSKSNAYATYYAASVKGRFTISRDDSKNTAYLQMNNLKTEDTAVYYCTRVGLRFYAMDYWGQGTLVTVSS VL: DVVMTQSPLSLPVTLGQPASISCRSSQSLVHSNANTYLEWYQQRPGQSPRLLIYKVSNRFSGVPDRFSGSGSGTDFTLKISRVEAEDLGVYYCFQGSQGPLTFGQGTKLEIK	0.8		80.1	5.4	
hACI-7067-1101C8-Ab2_H12L1 (antibody, V domains shown, VH on human IgG1 constant, VL on human kappa constant) VH: EVQLVESGGGLVQPGGSLKLSCAASGFTFNIYAMNWVRQAPGKGLEWVGRIRSKSNAYATYYAASVKGRFTISRDDSKNTAYLQMNNLKTEDTAVYYCTRVGLRFYALDYWGQGTLVTVSS VL: DVVMTQSPLSLPVTLGQPASISCRSSQSIVHSNANTYLEWYQQRPGQSPRLLIYKVSNRFSGVPDRFSGSGSGTDFTLKISRVEAEDLGVYYCFQGSQGPLTFGQGTKLEIK	0.2		64.4	1	
hACI-7067-1101C8-Ab2_H12L2 (antibody, V domains shown, VH on human IgG1 constant, VL on human kappa constant) VH: EVQLVESGGGLVQPGGSLKLSCAASGFTFNIYAMNWVRQAPGKGLEWVGRIRSKSNAYATYYAASVKGRFTISRDDSKNTAYLQMNNLKTEDTAVYYCTRVGLRFYALDYWGQGTLVTVSS VL: DVVMTQSPLSLPVTLGQPASISCRSSQSLVHSNANTYLEWYQQRPGQSPRLLIYKVSNRFSGVPDRFSGSGSGTDFTLKISRVEAEDLGVYYCFQGSQGPLTFGQGTKLEIK	0.1	10400	28.7	0.3	Kd (alpha-synuclein fibrils [3]): 13.7 nM; koff (alpha-synuclein fibrils [3]): 0.000142 s⁻¹
